Experimental data reported in the supplement of paper PMC7125110.
± gives the standard error. For some assays here: Fewer inactive variants are shown than the library holds.

B1: glmS ribozyme (parent)
chain: AUAAAAGCGCCAGAACUACAGAAAUGUAGUUGACGAGGAGGAGGUUUAUCGAAUUUUCGGCGGAUGCCUCCAAA

Assays:
Settings in all cases: with glucosamine-6-phosphate
glucosamine-6-phosphate [1] = variants of: B1; assay: kcat; higher = faster cleavage; RNA array
In short: (§1)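 Barcoded ribozyme variants, transcribed in situ by E. coli RNA polymerase on sequenced MiSeq chips, were followed via a hybridised Cy3 probe at 37 °C. Glucosamine-6-phosphate ranged from 40 μM to 10 mM in HEPES/KCl/Mg(OAc)2 buffer. kobs came from decay fits to per-tile medians, and kcat and KM from weighted Michaelis–Menten fits.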

glucosamine-6-phosphate [2] = variants of: B1; assay: self-cleavage kobs at 160 uM GlcN6P; higher = faster cleavage; RNA array
In short: as §1

glucosamine-6-phosphate [3] = variants of: B1; assay: self-cleavage kobs at 10000 uM GlcN6P; higher = faster cleavage; RNA array
In short: as §1

glucosamine-6-phosphate [4] = variants of: B1; assay: KM; higher = weaker cofactor use; RNA array
In short: as §1

glucosamine-6-phosphate [5] = variants of: B1; assay: self-cleavage kobs at 40 uM GlcN6P; higher = faster cleavage; RNA array
In short: as §1

glucosamine-6-phosphate [6] = variants of: B1; assay: self-cleavage kobs at 640 uM GlcN6P; higher = faster cleavage; RNA array
In short: as §1

glucosamine-6-phosphate [7] = variants of: B1; assay: self-cleavage kobs at 2500 uM GlcN6P; higher = faster cleavage; RNA array
In short: as §1

Variant	kcat (glucosamine-6-phosphate [1])	self-cleavage kobs at 160 uM GlcN6P (glucosamine-6-phosphate [2])	self-cleavage kobs at 10000 uM GlcN6P (glucosamine-6-phosphate [3])	KM (glucosamine-6-phosphate [4])	self-cleavage kobs at 40 uM GlcN6P (glucosamine-6-phosphate [5])	self-cleavage kobs at 640 uM GlcN6P (glucosamine-6-phosphate [6])	self-cleavage kobs at 2500 uM GlcN6P (glucosamine-6-phosphate [7])
AUAAAAGCGCCAGAACUACAGAAAUGUAGUUGACGAGUAGGAGGUUUAUCGAAUUUUCGGCAGAUGCCUCCAAA [G38U G62A]	< 1e-05 s⁻¹	< 1e-05 s⁻¹					
AUAAAAGCGCCAGAACUACAGAAAUGUAGUUGACGAGUAGGAGGUUUAUCGAAUUUUCGGCGGAUGCCUUCAAA [G38U C70U]	1.27e-05 ± 2.6e-06 s⁻¹						
AUAAAAGCGCCAGAACUACAGAAAUGUAGUUGACGAGCAGGAGGUUUAUCGAAUUUUCGGCGGAUGUCUGCAAA [G38C C67U C70G]	1.59e-05 ± 1.8e-06 s⁻¹						
AUAAAAGCGCCAGAACUACAGAAAUGUAGUUGACGAGCAGGAGGUUUAUCGAAUUUUCGGCGGAUUCCUCCAAA [G38C G66U]	< 1e-05 s⁻¹	< 1e-05 s⁻¹	< 1e-05 s⁻¹				
AUAAAAGCGCCAGAACUACAGAAAUGUAGUUGACGAGGCGGAGGUUUAUCGAAUUUUCGGCGGAUGCCUCCAAA [A39C]	0.00949 ± 0.0017 s⁻¹	0.000491 ± 1.8e-05 s⁻¹	0.00752 ± 0.00019 s⁻¹	2180 ± 510 µM	0.000188 ± 3.3e-06 s⁻¹	0.00208 ± 7.2e-05 s⁻¹	0.00591 ± 0.00018 s⁻¹
AUAAAAGCGCCAGAACUACAGAAAUGUAGUUGACGAGCAGGAGGUUUAUCGAAUUUUCGGCGGAUGCAUCCAAA [G38C C68A]	1.39e-05 ± 4.4e-06 s⁻¹				< 1e-05 s⁻¹		
AUAAAAGCGCCAGAACUACAGAAAUGUAGUUGACGAGGCGGAGGUUUCUCGAAUUUUCGGCGGAUGCCUCCAAA [A39C A48C]	7.62e-05 ± 2.8e-06 s⁻¹		5.69e-05 ± 9.4e-06 s⁻¹	3440 ± 350 µM			3.1e-05 ± 1.1e-05 s⁻¹
AUAAAAGCGCCAGAACUACAGAAAUGUAGUUGACGAGUAGGAGGUUUAUCGAAUUUUCGGCGGAUGCCUCCAAA [G38U]	< 1e-05 s⁻¹						
AUAAAAGCGCCAGAACUACAGAAAUGUAGUUGACGAGUAGGAGGUUUAUCGAAUUUUCGGCGGUUGCCUCCAAA [G38U A64U]	< 1e-05 s⁻¹				< 1e-05 s⁻¹	< 1e-05 s⁻¹	< 1e-05 s⁻¹
AUAAAAGCGCCAGAACUACAGAAAUGUAGUUGACGAGUAGGAGGUUUCUCGCAUUUUCGGCGGAUGCCUCAAAA [G38U A48C A52C C71A]	< 1e-05 s⁻¹		< 1e-05 s⁻¹		< 1e-05 s⁻¹		
AUAAAAGCGCCAGAACUACAGAAAUGUAGUUGACGAGCAGGAGGUUUAGCGAAUUUUCGGCGGAUGCAUCCAAA [G38C U49G C68A]	1.34e-05 ± 4.6e-06 s⁻¹						
AUAAAAGCGCCAGAACUACAGAAAUGUAGUUGACGAGUAAGAGGUUUAUCGAAUUUUCGGCGGAUGCCUCCAAA [G38U G40A]	< 1e-05 s⁻¹						
AUAAAAGCGCCAGAACUACAGAAAUGUAGUUGACGAGUAGGAGGUUUAUCGAACUUUCGGCGGAUGCCUCCAAA [G38U U54C]	< 1e-05 s⁻¹	< 1e-05 s⁻¹			< 1e-05 s⁻¹	< 1e-05 s⁻¹	
AUAAAAGCGCCAGAACUACAGAAAUGUAGUUGACGAGUAGGAGGUUUAUCAAAUUUUCGGCGGAUGCCUCCAAA [G38U G51A]	< 1e-05 s⁻¹						< 1e-05 s⁻¹
AUAAAAGCGCCAGAACUACAGAAAUGUAGUUGACGAGGCGGAGGUUUAUCGAGUUUUCGGCGGAUGCCUCCAAA [A39C A53G]	0.00638 ± 0.001 s⁻¹	0.000404 ± 6.3e-05 s⁻¹	0.00541 ± 0.0007 s⁻¹	1890 ± 400 µM	0.000151 ± 1.5e-05 s⁻¹	0.00157 ± 0.00027 s⁻¹	0.00372 ± 0.00061 s⁻¹
AUAAAAGCGCCAGAACUACAGAAAUGUAGUUGACGAGGCGGAGGUUUAUCGAAUUUUCGGCGGGUGCCUCCAAA [A39C A64G]	0.00631 ± 0.0019 s⁻¹	0.000342 ± 6.2e-05 s⁻¹	0.00604 ± 0.00065 s⁻¹	1870 ± 760 µM	0.000169 ± 1.3e-05 s⁻¹	0.0014 ± 0.00018 s⁻¹	0.00323 ± 0.00045 s⁻¹
AUAAAAGCGCCAGAACUACAGAAAUGUAGUUGACGAGCAGGAGGUUUAUCGAAUUUUGGGCGGAUGCCUUCAAA [G38C C58G C70U]	< 1e-05 s⁻¹						
AUAAAAGCGCCAGAACUACAGAAAUGUAGUUGACGAGUAGGAGGUUUAUCGAAUUUUCGGCGGAUUCCUCCAAA [G38U G66U]	< 1e-05 s⁻¹	< 1e-05 s⁻¹				< 1e-05 s⁻¹	
AUAAAAGCGCCAGAACUACAGAAAUGUAGUUGACGAGCAGGAGGUUUAUCGAAUUUUCGGCGGAUGCCUCUAAA [G38C C71U]	< 1e-05 s⁻¹				< 1e-05 s⁻¹	< 1e-05 s⁻¹	
AUAAAAGCGCCAGAACUACAGAAAUGUAGUUGACGAGUAGGAGGUUUAACGAAUUUUCGGCGGAUGACUCCAAA [G38U U49A C67A]	1.26e-05 ± 4.6e-06 s⁻¹						
AUAAAAGCGCCAGAACUACAGAAAUGUAGUUGACGAGCAGGAGGUUUAUCGAAUUUUCGGCGGAUCCCUUCAAA [G38C G66C C70U]	1.23e-05 ± 9.7e-07 s⁻¹					< 1e-05 s⁻¹	
AUAAAAGCGCCAGAACUACAGAAAUGUAGUUGACGAGGCGGCGGUUUAUCGAAUUUUCGGCGGAUGCCUCCAAA [A39C A42C]	6.31e-05 ± 3.9e-06 s⁻¹		5.88e-05 ± 8.3e-06 s⁻¹	890 ± 270 µM		3.24e-05 ± 1.5e-05 s⁻¹	4.41e-05 ± 9.6e-06 s⁻¹
AUAAAAGCGCCAGAACUACAGAAAUGUAGUUGACGAGGCGGGGGUUUAUCGAAUUUUCGGCGGAUGCCUCCAAA [A39C A42G]	0.00493 ± 0.0008 s⁻¹	0.000376 ± 7.6e-05 s⁻¹	0.0047 ± 0.00074 s⁻¹	1490 ± 310 µM	0.000141 ± 1.4e-05 s⁻¹	0.00152 ± 0.00029 s⁻¹	0.00282 ± 0.00046 s⁻¹
AUAAAAGCGCCAGAACUACAGAAAUGUAGUUGACGAGUAGGAGGUUGAUCGAAUUUUCGGCGGAUGCCUCCAAA [G38U U47G]	< 1e-05 s⁻¹				< 1e-05 s⁻¹		
